The target of experiment [1] is T1, human CAR-AP chimeric protein (extracellular region of human CAR linked with human secretory placental … (human, UniProt P78310 20-237; P05187 23-511).
T1 construct: also called human CAR-AP chimeric proteins
Kind of experiment: cell surface binding of human CAR-AP to transfected B300 cells.

Experiment [2] has as its target T2, CAR-AP chimeric protein (extracellular region of mouse CAR linked with human secretory placental alkaline … (mouse; human, UniProt P97792 20-237; P05187 23-511).
T2 construct: Secreted from 293/EBNA-1 cells; also called CAR-AP chimeric proteins; immobilized CAR
Kind of experiment: adhesion of transfected B300 cells to immobilized CAR-AP.

Experiment [3] deals with T3, human CARL-AP chimeric protein (extracellular region of human CARL linked with human secretory placental … (human, UniProt P05187 23-511)).
T3 construct: also called human CARL-AP chimeric proteins
In words: adhesion of human CAR-expressing B300 cells to immobilized human CARL-AP.

For experiment [4], the target named is T4, CARL-AP chimeric protein (extracellular region of mouse CARL linked with human secretory placental alkaline … (mouse; human, UniProt P05187 23-511).
T4 construct: also called CARL-AP proteins; chimeric protein of ENSMUSG0000048534 with AP
In words: adhesion of B300/CARL cells to immobilized AP chimeric proteins (method of Example 4, proteins applied at 10 nM). The procedure: Cell adhesion experiments were carried out using AP chimeric proteins to identify molecules functioning as adhesion molecules that adhere to lymphocytes. First, 50 μl of 10 μg/ml anti-alkaline phosphatase antibody (Seradyn MIA1802) was added to 96 well ELISA plates (Nunc), and allowed to stand at 37° C. for 30 minutes to immobilize the antibody. After washing the plates with PBS, the non-specifically binding sites were blocked with BlockAce (Dainippon Pharmaceutical Co.). AP chimeric proteins were diluted to a final concentration of 10 nM, added to the wells, and allowed to stand at room temperature for 30 minutes to immobilize the proteins. Activated lymphocytes were suspended in cell adhesion buffer (RPMI 1640, 0.5% BSA, and 20 mM HEPES (pH 7.4)), fluorescently labeled with Calcein-AM (Dojin), then added to wells at 1×10⁵ cells/well, and incubated at 37° C. for one hour. The non-adherent cells were washed away. A cell lysis solution (10 mM TrisHCl (pH 8.0), 1% TritonX-100) was added, then adherent cells were quantified using Wallac ARVO SX 1420 MULTILABEL COUNTER (Perkin Elmer) and measuring at an excitation wavelength of 485 nm and detection wavelength of 535 nm. The degree of cell adhesion was represented as a percentage ratio of adherent cells to added cells. […]

Experiment [5] addresses T2, CAR-AP chimeric protein (extracellular …). Kind of experiment: adhesion of CARL-expressing B300 cells to immobilized AP chimeric proteins.
The target is the same in experiment [6]. Kind of experiment: SPR (BIAcore X): CAR-AP captured by anti-alkaline phosphatase antibody on CM5 chip, CARL-Fc supernatant at 20, 6 or 0.6 nM. The procedure:
Then, a culture supernatant comprising CAR-AP chimeric protein or control AP chimeric protein diluted to 20 nM with HBS-EP buffer (BIAcore) was added to immobilize 500 RU of AP chimeric proteins onto the sensor chip. The protein-protein interactions were measured by adding culture supernatants comprising CARL-Fc chimeric proteins diluted to 20 nM, 6 nM, or 0.6 nM with HBS-EP buffer (BIAcore) at 20 μl/min for 210 seconds.
For orientation: In SPR one partner is held on a chip, and binding of the other changes the refractive index at the surface.

T2 sequence (P97792 other isoform, or with tags, fused parts or gaps mutant): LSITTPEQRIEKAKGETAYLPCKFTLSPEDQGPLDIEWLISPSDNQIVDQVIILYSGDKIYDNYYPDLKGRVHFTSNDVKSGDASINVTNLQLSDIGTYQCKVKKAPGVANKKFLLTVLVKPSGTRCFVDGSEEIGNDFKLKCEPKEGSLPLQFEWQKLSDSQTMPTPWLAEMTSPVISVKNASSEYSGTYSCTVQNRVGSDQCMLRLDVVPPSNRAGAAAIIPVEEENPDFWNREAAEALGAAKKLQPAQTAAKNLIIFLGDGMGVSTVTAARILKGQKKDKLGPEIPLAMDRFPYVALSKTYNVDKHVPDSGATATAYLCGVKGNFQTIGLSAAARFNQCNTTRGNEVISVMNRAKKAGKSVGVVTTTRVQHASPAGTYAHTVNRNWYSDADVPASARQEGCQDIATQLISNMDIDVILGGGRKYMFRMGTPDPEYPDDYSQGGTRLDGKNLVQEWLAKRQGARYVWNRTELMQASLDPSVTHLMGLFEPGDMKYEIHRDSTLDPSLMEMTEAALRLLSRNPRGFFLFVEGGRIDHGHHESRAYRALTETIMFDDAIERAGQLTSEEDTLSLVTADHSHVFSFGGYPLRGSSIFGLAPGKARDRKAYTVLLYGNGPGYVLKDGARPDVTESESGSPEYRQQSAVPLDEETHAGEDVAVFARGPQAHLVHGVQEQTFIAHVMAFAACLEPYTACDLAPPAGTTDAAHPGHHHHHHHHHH

B1: human CARL (human AMICA), full length, expressed on B300 cells (ligand)
chain: LNDLNVSPPELTVHVGDSALMGCVFQSTEDKCIFKIDWTLSPGEHAKDEYVLYYYSNLSVPIGRFQNRVHLMGDILCNDGSLLLQDVQEADQGTYICEIRLKGESQVFKKAVVLHVLPEEPKELMVHVGGLIQMGCVFQSTEVKHVTKVEWIFSGRRAKEEIVFRYYHKLRMSVEYSQSWGHFQNRVNLVGDIFRNDGSIMLQGVRESDGGNYTCSIHLGNLVFKKTIVLHVSPEEPRTLVTPAALRPLVLGGNQLVIIVGIVCATILLLPVLILIVKKTCGNKSSVNSTVLVKNTKKTNPEIKEKPCHFERCEGEKHIYSPIIVREVIEEEEPSEKSEATYMTMHPVWPSLRSDRNNSLEKKSGGGMPKTQQAF
notes: also called human CARL-expressing B300 cells; B300 cells expressing human CARL
Regarding B1, the binding result in experiment [1] was “binds”.

B2: domain 2-lacking CARL (positions 21 to 139 and 255 to 379) with FLAG tag, expressed on B300 cells (ligand)
chain: QGLPGLTVSSPQLRVHVGESVLMGCVVQRTEEKHVDRVDWLFSKDKDDASEYVLFYYSNLSVPTGRFQNRSHLVGDTFHNDGSLLLQDVQKADEGIYTCEIRLKNESMVMKKPVELWVLQDEFQRTISPTPPTDKGQQGILNGNQLVIIVGIVCATFLLLPVLILIVKKAKWNKSSVSSMASVKSLENKEKINPEKHIYSSITTWETTERGISGESEGTYMTMNPVWPSSPKASSLVRSSVRSK
notes: On cells; also called B300 cells expressing CARL lacking domain 2; not shown: FLAG tag from vector pMX ssFLAG MCS2.2 IRES Puro
As for B2, in experiment [2], the binding result is “binds”.

B3: domain 1-lacking CARL (positions 21 to 29 and 140 to 379) with FLAG tag, expressed on B300 cells (ligand)
chain: QGLPGLTVSPEEPKDLRVRVGDTTQMRCSIQSTEEKRVTKVNWMFSSGSHTEEETVLSYDSNMRSGKFQSLGRFRNRVDLTGDISRNDGSIKLQTVKESDRGIYTCSIYVGKLESRKTIVLHVVQDEFQRTISPTPPTDKGQQGILNGNQLVIIVGIVCATFLLLPVLILIVKKAKWNKSSVSSMASVKSLENKEKINPEKHIYSSITTWETTERGISGESEGTYMTMNPVWPSSPKASSLVRSSVRSK
notes: On cells; also called B300 cells expressing CARL lacking domain 1; not shown: FLAG tag from vector pMX ssFLAG MCS2.2 IRES Puro
In the case of B3, the binding result in experiment [2] is listed as “no binding”.

B4: human CAR, full length, expressed on B300 cells (receptor, UniProt P78310 20-365, looked up)
chain: LSITTPEEMIEKAKGETAYLPCKFTLSPEDQGPLDIEWLISPADNQKVDQVIILYSGDKIYDDYYPDLKGRVHFTSNDLKSGDASINVTNLQLSDIGTYQCKVKKAPGVANKKIHLVVLVKPSGARCYVDGSEEIGSDFKIKCEPKEGSLPLQYEWQKLSDSQKMPTSWLAEMTSSVISVKNASSEYSGTYSCTVRNRVGSDQCLLRLNVVPPSNKAGLIAGAIIGTLLALALIGLIIFCCRKKRREEKYEKEVHHDIREDVPPPKSRTSTARSYIGSNHSSLGSMSPSNMEGYSKTQYNQVPSEDFERTPQSPTLPPAKVAAPNLSRMGAIPVMIPAQSKDGSIV
notes: whole, on cells; also called human CAR-expressing B300 cells
B4: the binding result in experiment [3] is given as “binds”.

B5: mouse CARL (CAR ligand; ENSMUSG0000048534), full length, on cells (ligand)
chain: QGLPGLTVSSPQLRVHVGESVLMGCVVQRTEEKHVDRVDWLFSKDKDDASEYVLFYYSNLSVPTGRFQNRSHLVGDTFHNDGSLLLQDVQKADEGIYTCEIRLKNESMVMKKPVELWVLPEEPKDLRVRVGDTTQMRCSIQSTEEKRVTKVNWMFSSGSHTEEETVLSYDSNMRSGKFQSLGRFRNRVDLTGDISRNDGSIKLQTVKESDRGIYTCSIYVGKLESRKTIVLHVVQDEFQRTISPTPPTDKGQQGILNGNQLVIIVGIVCATFLLLPVLILIVKKAKWNKSSVSSMASVKSLENKEKINPEKHIYSSITTWETTERGISGESEGTYMTMNPVWPSSPKASSLVRSSVRSK
notes: also called CARL-expressing B300 cells; similar to AMICA (BC050133)
With B5, the figures for the binding result in experiment [4] and in experiment [5] were “no binding” and “binds”, respectively.

B6: full-length CARL (positions 21 to 379) with vector signal sequence and FLAG tag, expressed on B300 cells (ligand)
chain: QGLPGLTVSSPQLRVHVGESVLMGCVVQRTEEKHVDRVDWLFSKDKDDASEYVLFYYSNLSVPTGRFQNRSHLVGDTFHNDGSLLLQDVQKADEGIYTCEIRLKNESMVMKKPVELWVLPEEPKDLRVRVGDTTQMRCSIQSTEEKRVTKVNWMFSSGSHTEEETVLSYDSNMRSGKFQSLGRFRNRVDLTGDISRNDGSIKLQTVKESDRGIYTCSIYVGKLESRKTIVLHVVQDEFQRTISPTPPTDKGQQGILNGNQLVIIVGIVCATFLLLPVLILIVKKAKWNKSSVSSMASVKSLENKEKINPEKHIYSSITTWETTERGISGESEGTYMTMNPVWPSSPKASSLVRSSVRSK
notes: also called B300 cells expressing full-length CARL; not shown: FLAG tag from vector pMX ssFLAG MCS2.2 IRES Puro
In the case of B6, the binding result in experiment [2] was “binds”.

B7: CARL-Fc chimeric protein (mouse CARL) (Fc fusion)
chain: QGLPGLTVSSPQLRVHVGESVLMGCVVQRTEEKHVDRVDWLFSKDKDDASEYVLFYYSNLSVPTGRFQNRSHLVGDTFHNDGSLLLQDVQKADEGIYTCEIRLKNESMVMKKPVELWVLPEEPKDLRVRVGDTTQMRCSIQSTEEKRVTKVNWMFSSGSHTEEETVLSYDSNMRSGKFQSLGRFRNRVDLTGDISRNDGSIKLQTVKESDRGIYTCSIYVGKLESRKTIVLHVVQDEFQRTISPTPPTDKGQQGILNGNQL
notes: The making of CARL-Fc is described nowhere; used as culture supernatant; only its extracellular region is in the construct; also called CARL-Fc chimeric proteins; not shown: Fc part: species, isotype and any linker are not described
Turning to B7, in experiment [6], the affinity, expressed as Kd, was 4.8 nM.

Source of the values: patent publication US20080248502A1 (EISAI R AND D MANAGEMENT, published 2008).
